This note sets out measurements from patent publication US20160102139A1 (NATIONAL UNIVERSITY CORPORATION CHIBA UNIVERSITY, published 2016).

The chains are these.
B1: 3xFlag mCD69EC treated with the deglycosylation enzyme PNGase F (receptor, mouse, UniProt P37217 62-199, looked up)
chain: NVGKYNCPGLYEKLESSDHHVATCKNEWISYKRTCYFFSTTTKSWALAQRSCSEDAATLAVIDSEKDMTFLKRYSGELEHWIGLKNEANQTWKWANGKEFNSWFNLTGSGRCVSVNHKNVTAVDCEANFHWVCSKPSR
modifications: N-glycans removed by PNGase F (500 U per 1 ug protein)
notes: extracellular domain; Same polypeptide as m2, after deglycosylation with N-glycosidase PNGase F; also called CD69EC previously treated with PNGase F; deglycosylated 3xFLAG mCD69EC; not shown: N-terminal 3xFlag tag from vector p3xFLAG CMV-9
B2: mouse CD69 extracellular domain protein having 3xFlag-tag added thereto (3xFlag mCD69EC) (receptor, UniProt P37217 62-199, looked up)
chain: NVGKYNCPGLYEKLESSDHHVATCKNEWISYKRTCYFFSTTTKSWALAQRSCSEDAATLAVIDSEKDMTFLKRYSGELEHWIGLKNEANQTWKWANGKEFNSWFNLTGSGRCVSVNHKNVTAVDCEANFHWVCSKPSR
notes: extracellular domain; also called mCD69EC protein; not shown: N-terminal 3xFlag tag from vector p3xFLAG CMV-9

Holding throughout (assay): immunoprecipitation with anti-Flag M2 antibody from bone marrow extract, immunoblot with anti-Myl9/12 antibody
On the technique in general: A western blot detects proteins with antibodies after separation by electrophoresis.

For assay [1], the target named is T1, mouse Myl9 (myosin regulatory light chain polypeptide 9) (mouse, UniProt Q9CQ19 2-172).
T1 construct: Native protein in mouse bone marrow extract (BM lysate) or mouse tissues; also called Myl9/12
T1 sequence: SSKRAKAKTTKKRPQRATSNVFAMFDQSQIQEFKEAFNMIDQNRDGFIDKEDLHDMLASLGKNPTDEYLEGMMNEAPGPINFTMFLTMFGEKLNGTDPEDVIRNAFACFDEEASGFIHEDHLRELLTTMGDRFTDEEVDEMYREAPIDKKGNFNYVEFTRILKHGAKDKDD
As to the method: (§1) Then, whether the binding of Myl9, Myl12a, and Myl12b with CD69 actually occurred was investigated. Firstly, mCD69EC sequence was inserted to p3xFLAG CMV-9 (Sigma-Aldrich Co. LLC.) having Flag tag incorporated at the N-terminal to produce an expression vector of mCD69EC sequence having Flag-Tag added at the N-terminal. The expression vector was transformed to 293 T cells to overexpress 3xFlag mCD69EC, and then a cell extract was prepared. As a control, a cell extract was prepared from 293 T cells overexpressing 3xFlag peptide. 3xFlag mCD69EC protein or 3xFlag peptide was purified from the cell extract using anti-[…] (SEQ ID NO: 21) tag antibody beads (Wako Pure Chemical Industries, Ltd.). In this case, […] is a peptide represented by a single letter code for an amino acid. Those purified proteins were each subjected to a reaction with a bone marrow extract (BM lysate) in the same manner as described above and the resultant products were subjected to immunoprecipitation using anti-Flag M2 antibody (Sigma-Aldrich Co. LLC.) and protein-G (GE Healthcare). After the immunoprecipitation was performed, the precipitates were separated by SDS-PAGE and transferred to a polyvinylidene difluoride (PVDF) membrane (Bio-Rad Laboratories, Inc.). Subsequently, immunoblotting was performed using an antibody which recognized Myl9, Myl12a, and Myl12b (hereinafter referred to as anti-Myl9/12 antibody). That is, each protein was detected by ChemiDocXRS+ (Bio-Rad Laboratories, Inc.) with ECL detection reagents (GE Healthcare) using rabbit anti-Myl9 antibody (Abcam plc.) as a primary antibody and horseradish peroxidase (HRP)-labeled anti-rabbit IgG antibody (Cell Signaling Technology, Inc.) as a secondary antibody. Deglycosylation treatment of the mCD69EC protein was performed by adding 500 U of N-glycosidase PNGase F (New England Biolabs Ltd.) to 1 μg of 3xFLAG mCD69EC.

For assay [2], the target named is T2, mouse Myl12b (myosin regulatory light chain polypeptide 12b) (mouse, UniProt Q3THE2 1-172, limits assumed).
T2 construct: Native protein in mouse bone marrow extract (BM lysate) or mouse tissues; also called Myl9/12
T2 sequence: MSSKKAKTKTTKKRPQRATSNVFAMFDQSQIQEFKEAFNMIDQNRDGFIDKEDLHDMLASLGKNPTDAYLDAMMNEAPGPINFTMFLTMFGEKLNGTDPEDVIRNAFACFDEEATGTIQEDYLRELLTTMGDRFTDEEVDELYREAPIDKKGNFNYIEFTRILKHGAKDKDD
How it is done: as §1

The target of assay [3] is B2. How it is done: as §1
The target of assay [4] is B1. How it is done:
as §1

Turning to B1, the binding result in assay [1] and in assay [2] was “binds” each time.
As for B2, the binding result in assay [1] and in assay [2] was “binds” in each case.

B3: mouse Myl12a (myosin regulatory light chain polypeptide 12a) (ligand)
chain: MSSKRAKTKTTKKRPQRATSNVFAMFDQSQIQEFKEAFNMIDQNRDGFIDKEDLHDMLASMGKNPTDEYLDAMMNEAPGPINFTMFLTMFGEKLNGTDPEDVIRNAFACFDEEAIGTIQEDYLRELLTTMGDRFTDEEVDELYREAPIDKKGNFNYIEFTRILKHGAKDKDD
notes: Native protein in mouse bone marrow extract (BM lysate) or mouse tissues; also called Myl9/12
Regarding B3, the binding result in assay [3] and in assay [4] was “binds” in each case.
